Laboratory results published in patent US20150203577A1 (Chugai, published 2015).
Where a chain is given by its changes, count along the chain named.

T1: mouse FcγRIII (mouse, UniProt P08508 31-215)
T1 construct: also called mFcγRIII; mFcgRIII
T1 chain: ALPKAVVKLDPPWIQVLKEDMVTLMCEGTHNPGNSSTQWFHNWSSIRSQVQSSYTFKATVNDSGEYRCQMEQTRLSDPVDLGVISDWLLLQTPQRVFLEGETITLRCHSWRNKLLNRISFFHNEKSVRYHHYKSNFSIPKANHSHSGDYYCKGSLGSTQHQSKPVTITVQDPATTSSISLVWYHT

T2: mouse FcγRIII extracellular domain, C-terminally His-tagged (mouse, UniProt P08508 31-215)
T2 construct: the whole entry is named; also called mFcγRIII; mFcgRIII
T2 chain: T1 chain

T3: mouse FcγRII extracellular domain, C-terminal His tag (mouse, UniProt P08101 30-210)
T3 construct: Whole entry named; also called mFcγRII; mFcgRII
T3 sequence: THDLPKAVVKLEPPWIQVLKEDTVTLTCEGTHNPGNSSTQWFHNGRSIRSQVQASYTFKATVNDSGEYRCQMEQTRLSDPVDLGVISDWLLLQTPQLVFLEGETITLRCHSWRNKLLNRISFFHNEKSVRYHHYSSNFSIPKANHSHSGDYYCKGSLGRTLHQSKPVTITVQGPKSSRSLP

T4: mouse FcγRIII extracellular domain, C-terminal His tag (mouse, UniProt P08508 31-215)
T4 construct: Whole entry named; also called mFcγRIII; mFcgRIII
T4 chain: T1 chain

T5: mouse FcγRIII (mouse, UniProt P08508 31-215)
T5 construct: also called mFcγRIII; mFcgRIII
T5 chain: T1 chain

T6: mouse FcγRII (mouse, UniProt P08101 30-210)
T6 construct: also called mFcγRII; mFcgRII
T6 sequence: T3 sequence

T7: mouse FcγRII extracellular domain, C-terminally His-tagged (mouse, UniProt P08101 30-210)
T7 construct: the whole entry is named; also called mFcγRII; mFcgRII
T7 sequence: T3 sequence

B1: H237-mIgG1/MRAL-k0 (antibody)
heavy: QVQLQESGPGLVKPSETLSLTCAVSGHSISHDHAWSWVRQPPGEGLEWIGFISYSGITNYNPSLQGRVTISRDNSKNTLYLQMNSLRAEDTAVYYCARSLARTTAMDYWGEGTLVTVSSAKTTPPSVYPLAPGSAAQTNSMVTLGCLVKGYFPEPVTVTWNSGSLSSGVHTFPAVLQSDLYTLSSSVTVPSSTWPSETVTCNVAHPASSTKVDKKIVPRDCGCKPCICTVPEVSSVFIFPPKPKDVLTITLTPKVTCVVVDISKDDPEVQFSWFVDDVEVHTAQTQPREEQFNSTFRSVSELPIMHQDWLNGKEFKCRVNSAAFPAPIEKTISKTKGRPKAPQVYTIPPPKEQMAKDKVSLTCMITDFFPEDITVEWQWNGQPAENYKNTQPIMDTDGSYFVYSKLNVQKSNWEAGNTFTCSVLHEGLHNHHTEKSLSHSPGK
light: not shown
notes: Anti-IL-6 receptor antibody with unaltered mouse IgG1 H chain constant region; copies: 2 + 2
B2: H237-MB706/MRAL-k0 (antibody, mouse IgG1, kappa)
heavy: B1 heavy with T229E, V230P, P231A, S234E, S235V
light: not shown
notes: copies: 2 + 2
B3: H237-MB721/MRAL-k0 (antibody, mouse IgG1, kappa)
heavy: B1 heavy with T229E, V230P, P231N, S234E, S235H
light: not shown
notes: copies: 2 + 2
B4: H237-MB711/MRAL-k0 (antibody, mouse IgG1, kappa)
heavy: B1 heavy with T229E, V230P, P231A, S234E, S235R
light: not shown
notes: copies: 2 + 2
B5: H237-MB792/MRAL-k0 (antibody, mouse IgG1, kappa)
heavy: B1 heavy with T229Q, V230P, P231N, S234E, S235V
light: not shown
notes: copies: 2 + 2
B6: H237-MB720/MRAL-k0 (antibody, mouse IgG1, kappa)
heavy: B1 heavy with T229E, V230P, P231N, S234E, S235R
light: not shown
notes: copies: 2 + 2
B7: H237-MB707/MRAL-k0 (antibody, mouse IgG1, kappa)
heavy: B1 heavy with T229E, V230P, P231A, S234E, S235I
light: not shown
notes: copies: 2 + 2
B8: H237-MB712/MRAL-k0 (antibody, mouse IgG1, kappa)
heavy: B1 heavy with T229E, V230P, P231A, S234E, S235H
light: not shown
notes: copies: 2 + 2
B9: H237-MB877/MRAL-k0 (antibody, mouse IgG1, kappa)
heavy: B1 heavy with T229E, V230P, P231N, S234E, S235I, K264D, N320D, A322D, A323G, K330R
light: not shown
notes: copies: 2 + 2
B10: FS134 (antibody, human IgG1, kappa)
heavy: QVQLQESGPGLVKPSETLSLTCAVSGHSISHDHAWSWVRQPPGEGLEWIGFISYSGITNYNPSLQGRVTISRDNSKNTLYLQMNSLRAEDTAVYYCARSLARTTAMDYWGEGTLVTVSSASTKGPSVFPLAPSSKSTSGGTAALGCLVKDYFPEPVTVSWNSGALTSGVHTFPAVLQSSGLYSLSSVVTVPSSSLGTQTYICNVNHKPSNTKVDKKVEPKSCDKTHTCPPCPAPELLGGPDVFLFPPKPKDTLMISRTPEVTCVVVDVSDEDPEVKFNWYVDGVEVHNAKTKPREEQYNSTYRVVSVLTVLHQDWLNGKEYKCKVSNKAYPAPIEKTISKAKGQPREPQVYTLPPSRDELTKNQVSLTCLVKGFYPSDIAVEWESNGQPENNYKTTPPVLDSDGSFFLYSKLTVDKSRWQQGNVFSCSVMHEALHNHYTQKSLSLSPGK
light: not shown
notes: human IgG1 constant region variant; copies: 2 + 2
B11: FS131 (antibody, human IgG1, kappa)
heavy: B10 heavy with L236W, D270H
light: not shown
notes: as for B10
B12: FS133 (antibody, human IgG1, kappa)
heavy: B10 heavy with Y330W
light: not shown
notes: as for B10
B13: F616 (antibody, human IgG1, kappa)
heavy: B10 heavy with D270H, K328D
light: not shown
notes: as for B10
B14: FS135 (antibody, human IgG1, kappa)
heavy: B10 heavy with S269A, D270H
light: not shown
notes: as for B10
B15: FS132 (antibody, human IgG1, kappa)
heavy: B10 heavy with D270H, A329D
light: not shown
notes: as for B10
B16: H237-MB885/MRAL-k0 (antibody, mouse IgG1, kappa)
heavy: B1 heavy with T229E, V230P, P231A, V233E, S234E
light: not shown
notes: copies: 2 + 2
B17: H237-MB883/MRAL-k0 (antibody, mouse IgG1, kappa)
heavy: B1 heavy with T229E, V230P, P231A, V233E, S235L
light: not shown
notes: copies: 2 + 2
B18: H237-MB878/MRAL-k0 (antibody, mouse IgG1, kappa)
heavy: B1 heavy with V230P, P231A, V233E, S234E, S235L
light: not shown
notes: copies: 2 + 2
B19: H237-MB884/MRAL-k0 (antibody, mouse IgG1, kappa)
heavy: B1 heavy with T229E, V230P, P231N, V233E, S235L
light: not shown
notes: copies: 2 + 2
B20: H237-MB886/MRAL-k0 (antibody, mouse IgG1, kappa)
heavy: B1 heavy with T229E, V230P, P231N, V233E, S234E
light: not shown
notes: copies: 2 + 2

Biological target: T1, mouse FcγRIII
Test: SPR (Biacore), antibody captured on Protein L, mFcγR as analyte
Experimental: The antibody of interest was captured onto any of these sensor chips and allowed to interact with mFcγR diluted with a running buffer. The amount bound to the antibody was measured and compared among antibodies. Since the amount of mFcγR bound depends on the amount of the captured antibody, a correction value determined by dividing the amount of mFcγR bound by the amount of each captured antibody was used in the comparison. The antibody captured on the sensor chip was washed off through the reaction of 10 mM glycine-HCl (pH 1.5) to regenerate the sensor chip, which was repetitively used.
(§1) In order to calculate the KD value of each altered antibody for FcγR, kinetic analysis was conducted according to the following method: first, the antibody of interest was captured onto any of these chips and allowed to interact with mFcγR diluted with a running buffer. For the obtained sensorgram, the assay results were globally fit into the 1:1 Langmuir binding model using Biacore Evaluation Software to calculate an association rate constant ka (L/mol/s) and a dissociation rate constant kd (1/s). From these values, the dissociation constant KD (mol/L) was calculated.

Row | Kd | Binder
1 | 282 nM | B1

Biological target: T2, mouse FcγRIII extracellular domain, …
Test: SPR Biacore T200

Row | binding result | Binder
2 | no binding | B2
3 | no binding | B3
4 | no binding | B4
5 | no binding | B5
6 | no binding | B6
7 | no binding | B7
8 | no binding | B8

These binders were tested against T3, mouse FcγRII extracellular domain, … (assay: SPR (Biacore T200); KD of H237-mIgG1/MRAL-k0 / KD of variant).
Description: (§2) The antibody H chain variable region used was the variable region H237 (SEQ ID NO: 1) of the H chain VH3-IgG1 of the anti-IL-6 receptor antibody Fv4-IgG1 described in WO2009/125825. The antibody L chain commonly used was the L chain MRAL-k0 (SEQ ID NO: 2) of the anti-IL-6 receptor antibody tocilizumab. H237-MB716/MRAL-k0 was used as a template to introduce the alterations. These variants were expressed and purified by the method of Reference Example 1 and evaluated for their binding to mFcγRII and mFcγRIII by the method of Reference Example 2 using Biacore T200.
(§3) Each altered antibody was analyzed for its interaction with each Fcγ receptor prepared above using Biacore T100 (GE Healthcare Japan Corp.), Biacore T200 (GE Healthcare Japan Corp.), Biacore A100, or Biacore 4000. The running buffer used was HBS-EP+ (GE Healthcare Japan Corp.). The assay temperature was set to 25° C. The sensor chips used were chips prepared by immobilizing Protein L (ACTIGEN or BioVision) onto Series S Sensor Chip CM5 (GE Healthcare Japan Corp.) or Series S Sensor Chip CM4 (GE Healthcare Japan Corp.) by the amine coupling method.

Row | relative mFcγRII-binding activity (mIgG1 = 1) | Binder
9 | 55.3 fold | B9

Biological target: T4, mouse FcγRIII extracellular domain, …
Test: as above
Description: as §2, §3

Row | relative mFcγRIII-binding activity (mIgG1 = 1) | Binder
10 | 1.45 fold | B9

Biological target: T5, mouse FcγRIII
Test: SPR Biacore T200, KD ratio
Experimental: (§4) The antibody L chain commonly used was the L chain MRAL-k0 (SEQ ID NO: 2) of the anti-IL-6 receptor antibody tocilizumab. The antibody H chain constant region used was each of the aforementioned 8 Fc variants prepared by altering human IgG1 hIgG1 (SEQ ID NO: 3) as a template.
as §3, §1

Row | relative mFcγRIII-binding activity (mIgG1 = 1) | Binder
11 | 20.8 fold | B10
12 | 33.2 fold | B11
13 | 86.5 fold | B12
14 | 50.1 fold | B13
15 | 34.4 fold | B14
16 | 41.8 fold | B15

Each binder was assayed against T6, mouse FcγRII (assay: SPR Biacore T200, KD ratio).
Experimental: as §4, §3, §1

Row | relative mFcγRII-binding activity (mIgG1 = 1) | Binder
17 | 58.2 fold | B10
18 | 144 fold | B11
19 | 162 fold | B12
20 | 186 fold | B13
21 | 138 fold | B14
22 | 96.7 fold | B15

Biological target: T3, mouse FcγRII extracellular domain, …
Test: SPR (Biacore T200); KD of H237-mIgG1/MRAL-k0 / KD of variant
Remark: another data set of the same source
Experimental: as §3, §1

Row | relative mFcγRII-binding activity (mIgG1 = 1) | Binder
23 | 3.29 fold | B16
24 | 2.21 fold | B17
25 | 0.47 fold | B18
26 | 2.46 fold | B19
27 | 1.47 fold | B20

Biological target: T4, mouse FcγRIII extracellular domain, …
Test: as above
Remark: another data set of the same source
Experimental: as §3, §1

Row | relative mFcγRIII-binding activity (mIgG1 = 1) | Binder
28 | 0.13 fold | B16
29 | 0.11 fold | B17
30 | 0.03 fold | B18
31 | 0.09 fold | B19
32 | 0.08 fold | B20

Each binder was assayed against T7, mouse FcγRII extracellular domain, … (assay: SPR Biacore T200, KD ratio).

Row | relative mFcγRII-binding activity (mIgG1 = 1) | Binder
33 | 0.23 fold | B2
34 | 0.3 fold | B3
35 | 0.05 fold | B4
36 | 0.31 fold | B5
37 | 0.08 fold | B6
38 | 0.37 fold | B7
39 | 0.16 fold | B8

These binders were tested against T3, mouse FcγRII extracellular domain, … (assay: SPR (Biacore T200); KD of H237-MB716/MRAL-k0 / KD of variant).
Description: as §2, §3

Row | relative mFcγRII-binding activity (MB716 = 1) | Binder
40 | 12.7 fold | B9

Biological target: T4, mouse FcγRIII extracellular domain, …
Test: as above
Description: as §2, §3

Row | relative mFcγRIII-binding activity (MB716 = 1) | Binder
41 | 24.4 fold | B9
